Assay results published in paper PMC9506730.

Target: T1, human Kir2.1 channel, wild type (human), P63252
T1 chain: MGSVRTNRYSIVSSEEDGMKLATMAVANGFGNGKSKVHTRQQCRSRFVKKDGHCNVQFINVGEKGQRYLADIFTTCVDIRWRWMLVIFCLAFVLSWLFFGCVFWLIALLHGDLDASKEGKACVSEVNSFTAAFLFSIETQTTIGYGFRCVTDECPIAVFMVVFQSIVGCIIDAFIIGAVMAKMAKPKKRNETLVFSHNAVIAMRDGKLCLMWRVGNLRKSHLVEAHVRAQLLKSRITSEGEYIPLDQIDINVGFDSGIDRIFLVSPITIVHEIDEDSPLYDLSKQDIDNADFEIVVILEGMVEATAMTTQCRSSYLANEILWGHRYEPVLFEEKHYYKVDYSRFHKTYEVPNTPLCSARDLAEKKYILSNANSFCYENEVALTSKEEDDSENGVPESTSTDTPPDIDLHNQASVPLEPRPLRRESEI
Test: SEC
Conditions: remark: other sources report otherwise

stoichiometry N: 4
B1: human Kir2.1 channel, wild type, P63252 1-427 (natural protein)
chain: MGSVRTNRYSIVSSEEDGMKLATMAVANGFGNGKSKVHTRQQCRSRFVKKDGHCNVQFINVGEKGQRYLADIFTTCVDIRWRWMLVIFCLAFVLSWLFFGCVFWLIALLHGDLDASKEGKACVSEVNSFTAAFLFSIETQTTIGYGFRCVTDECPIAVFMVVFQSIVGCIIDAFIIGAVMAKMAKPKKRNETLVFSHNAVIAMRDGKLCLMWRVGNLRKSHLVEAHVRAQLLKSRITSEGEYIPLDQIDINVGFDSGIDRIFLVSPITIVHEIDEDSPLYDLSKQDIDNADFEIVVILEGMVEATAMTTQCRSSYLANEILWGHRYEPVLFEEKHYYKVDYSRFHKTYEVPNTPLCSARDLAEKKYILSNANSFCYENEVALTSKEEDDSENGVPESTSTDTPPDIDLHNQASVPLEPRPLRRESEI
